# Substrate: NC(=O)C1=CN([C@@H]2O[C@H](COP(=O)(O)OP(=O)(O)OC[C@H]3O[C@@H](n4cnc5c(N)ncnc54)[C@H](O)[C@@H]3O)[C@@H](O)[C@H]2O)C=CC1
# Test: purified protein
# Assay type: biochemical, Methylorubrum extorquens
# Conditions: 100 mM sodium bicarbonate, N2-purged 200 mM Kpi pH 6.5 (no O2 or CO), NADH varied 6.25-100 µM, table header prints NAD+, free enzyme
protein,measurement,value
"MeFDH1 (Methylorubrum extorquens AM1) (protein, with Tungsten-containing formate dehydrogenase alpha subunit) MSEASGTVRSFAHPGRGRNVARAVPKGRQVDPHAKVEIEELLGTRPRQRDLLIEHLHLIQDTYGQISADHLAALADEMSLAFAEVFETATFYAHFDVVKEGEADIPRLTIRVCDSITCAMFGADELLETLQRELASDAVRVVRAPCVGLCDHAPAVEVGHNFLHRADLASVRAAVEAEDTHAHIPTYVDYDAYRAGGGYATLERLRSGELPVDDVLKVLDDGGLRGLGGAGFPTGRKWRSVRGEPGPRLMAVNGDEGEPGTFKDQLYLNTDPHRFLEGMLIGAHVVEAADVYIYLRDEYPISREILAREIAKLPEGGTRIHLRRGAGAYICGEESSLIESLEGKRGLPRHKPPFPFQVGLFNRPTLINNIETLFWVRDLIERGAEWWKSHGRNGRVGLRSYSVSGRVKEPGVKLAPAGLTIQELIDEYCGGISDGHSFAAYLPGGASGGILPASMNDIPLDFGTLEKYGCFIGSAAVVILSDQDDVRGAALNLMKFFEDESCGQCTPCRSGTQKARMLMENGVWDTDLLGELAQCMRDASICGLGQAASNPVSTVIKYFPDLFPEPRAVAAE",Km,26.38 ± 1.16 µM
same,kcat,2.27 ± 0.064 s⁻¹
same,kcat/Km,86200 ± 3000 M⁻¹ s⁻¹

# Reference: publication PMC10579561, “Real flue gas CO2 hydrogenation to formate by an enzymatic reactor using O2- and CO-tolerant hydrogenase and formate dehydrogenase” (Frontiers in Bioengineering and Biotechnology, 2023)
